{"source": "patent US20180215825A1", "about": "(BEIGENE, published 2018)", "binders": {"B1": {"name": "hu333-4B2-IgG1mc (antibody)", "heavy": "EVQLVESGGGLVQPGGSLRLSCAVSGFSLTSYGVHWVRQAPGKGLEWVAVIWAGGSTNYADSVKGRFTISKDTSKNTVYLQMNSLRAEDTAVYYCAKPYGTSAMDYWGQGTLVTVSSASTKGPSVFPLAPSSKSTSGGTAALGCLVKDYFPEPVTVSWNSGALTSGVHTFPAVLQSSGLYSLSSVVTVPSSSLGTQTYICNVNHKPSNTKVDKKVEPKSCDKTHTCPPCPAPPAAAPSVFLFPPKPKDTLMISRTPEVTCVVVDVSHEDPEVKFNWYVDGVEVHNAKTKPREEQYNSTYRVVSVLTVLHQDWLNGKEYKCKVSNKALAAPIEKTISKAKGQPREPQVYTLPPSRDELTKNQVSLTCLVKGFYPSDIAVEWESNGQPENNYKTTPPVLDSDGSFFLYSKLTVDKSRWQQGNVFSCSVMHEALHNHYTQKSLSLSPGK", "light": "DIQMTQSPSSLSASVGDRVTITCKASQDVGIVVAWYQQKPGKAPKLLIYWASIRHTGVPSRFSGSGSGTEFTLTISSLQPDDFATYYCQQYSNYPLYTFGQGTKVEIKRTVAAPSVFIFPPSDEQLKSGTASVVCLLNNFYPREAKVQWKVDNALQSGNSQESVTEQDSKDSTYSLSSTLTLSKADYEKHKVYACEVTHQGLSSPVTKSFNRGEC"}, "B2": {"name": "hu333-4B2-IgG1mf (antibody)", "heavy": "B1 heavy with A236G", "light": "B1 light"}, "B3": {"name": "hu333-4A2-IgG1mc (antibody)", "heavy": "B1 heavy with A60V, T73N, S74A", "light": "B1 light"}, "B4": {"name": "hu333-4A2-IgG1wt (antibody)", "heavy": "not shown", "VL": "DIQMTQSPSSLSASVGDRVTITCKASQDVGIVVAWYQQKPGKAPKLLIYWASIRHTGVPSRFSGSGSGTEFTLTISSLQPDDFATYYCQQYSNYPLYTFGQGTKVEIK", "notes": "light chain constant region (kappa) not tied to an entry for this form"}}, "key": {"[1]": {"molecular_target": "T1, human FcγRI expressed on HEK293 cells (human, UniProt P12314 16-374)", "T1 construct": "whole, on cells; Co-expressed with FcRγ subunit", "T1 sequence (P12314 16-374)": "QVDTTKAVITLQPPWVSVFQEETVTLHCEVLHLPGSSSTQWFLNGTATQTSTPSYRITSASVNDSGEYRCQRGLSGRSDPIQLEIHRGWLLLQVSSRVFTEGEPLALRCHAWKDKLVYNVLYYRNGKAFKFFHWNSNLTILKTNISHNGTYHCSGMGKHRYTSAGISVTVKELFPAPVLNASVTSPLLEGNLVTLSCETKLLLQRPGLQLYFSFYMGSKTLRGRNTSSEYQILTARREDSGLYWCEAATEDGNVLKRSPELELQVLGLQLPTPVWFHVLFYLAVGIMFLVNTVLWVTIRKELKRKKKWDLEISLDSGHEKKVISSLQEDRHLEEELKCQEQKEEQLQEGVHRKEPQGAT", "test": "FACS, 10 µg/mL mAb as immune complex with biotin-PD-L1/His and neutravidin on FcγR-expressing HEK293 cells", "description": "Such bindings are thought to be more relevant under physiological condition, as the binding strength between monomeric γFc and most of the FcγRs is very weak. Human immune system also takes advantage of this mechanism to avoid non-specific activation of FcγRs by monomeric IgG which are present at high levels in serum."}, "[2]": {"molecular_target": "T2, FcγRI extracellular domain, His tag (human, UniProt P12314 16-292)", "T2 construct": "extracellular domain", "T2 sequence (P12314 16-292)": "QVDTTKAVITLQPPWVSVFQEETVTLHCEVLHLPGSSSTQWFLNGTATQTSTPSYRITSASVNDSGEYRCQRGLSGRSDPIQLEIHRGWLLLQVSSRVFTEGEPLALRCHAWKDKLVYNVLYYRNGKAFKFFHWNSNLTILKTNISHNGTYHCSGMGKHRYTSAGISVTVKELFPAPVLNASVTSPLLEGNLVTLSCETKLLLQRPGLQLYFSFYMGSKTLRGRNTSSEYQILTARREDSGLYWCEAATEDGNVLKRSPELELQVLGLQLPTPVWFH", "test": "ELISA, FcγR-His coated, preformed immune complex; normalized to hu333-4A2-IgG1wt", "procedure": "(§1) The extracellular domains of FcγRs were fused to C-terminal His tags as described in previous sections. Recombinant proteins were expressed in 293-F cells by transient transfection and purified using Ni-Sepharose column followed by gel filtration column as described. 2-5 μg/mL of FcγRs were coated on Nunc MaxiSorp ELISA plates (Cat. No. 442404, Nunc, Thermo Fisher) except FcγRIIB and FcγRIIIB, Ni-chelate plates were used (Cat. No. 15242, Pierce, Thermo Fisher). After washing and blocking of the wells, a preformed immune-complex was added to each well and incubated at room temperature for 1-2 hours. […] After washing the plate four times, binding signals were detected by chemiluminescence using Immobilon Chemiluminescence Substrate A/B (Cat. No. WBKLS0500, Millipore)."}, "[3]": {"molecular_target": "T3, FcγRIIAR131 extracellular domain, His tag (human, UniProt P12318 34-217)", "T3 construct": "extracellular domain", "T3 sequence (looked up)": "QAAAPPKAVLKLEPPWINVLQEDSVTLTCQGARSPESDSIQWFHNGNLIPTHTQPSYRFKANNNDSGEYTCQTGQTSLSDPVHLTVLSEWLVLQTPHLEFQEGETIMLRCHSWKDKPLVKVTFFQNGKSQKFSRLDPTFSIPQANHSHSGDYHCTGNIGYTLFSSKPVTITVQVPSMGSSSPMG", "test": "ELISA, FcγR-His coated, preformed immune complex; normalized to hu333-4A2-IgG1wt", "procedure": "as §1"}, "[4]": {"molecular_target": "T4, FcγRIIIAF158 extracellular domain, His tag (human, UniProt P08637 17-208)", "T4 construct": "extracellular domain", "T4 sequence (P08637 17-208)": "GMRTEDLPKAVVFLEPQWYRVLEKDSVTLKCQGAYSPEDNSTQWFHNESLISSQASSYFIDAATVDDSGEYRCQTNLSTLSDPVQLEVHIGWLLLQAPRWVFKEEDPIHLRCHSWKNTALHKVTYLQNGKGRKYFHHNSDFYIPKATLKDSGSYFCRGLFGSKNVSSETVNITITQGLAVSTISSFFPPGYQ", "test": "ELISA, FcγR-His coated, preformed immune complex; normalized to hu333-4A2-IgG1wt", "procedure": "as §1"}, "[5]": {"molecular_target": "T5, FcγRIIIAV158 extracellular domain, His tag (human, UniProt P08637 17-208)", "T5 construct": "extracellular domain; also called FcγRIIIAV58", "T5 sequence (P08637 17-208 F176V limits assumed)": "as the sequence (P08637 17-208) above, with F160V counted along it", "test": "ELISA, FcγR-His coated, preformed immune complex; normalized to hu333-4A2-IgG1wt", "procedure": "as §1"}, "[6]": {"molecular_target": "T6, FcγRIIAH131 extracellular domain, His tag (human, UniProt P12318 34-217)", "T6 construct": "extracellular domain", "T6 sequence (looked up)": "T3 sequence (looked up) with R134H", "test": "ELISA, FcγR-His coated, preformed immune complex; normalized to hu333-4A2-IgG1wt", "procedure": "as §1"}, "[7]": {"molecular_target": "T2, FcγRI extracellular domain, His tag", "test": "ELISA, FcγR-His coated, preformed immune complex of the mAb", "procedure": "as §1"}, "[8]": {"molecular_target": "T3, FcγRIIAR131 extracellular domain, His …", "test": "ELISA, FcγR-His coated, preformed immune complex of the mAb", "procedure": "as §1"}, "[9]": {"molecular_target": "T4, FcγRIIIAF158 extracellular domain, His …", "test": "ELISA, FcγR-His coated, preformed immune complex of the mAb", "procedure": "as §1"}, "[10]": {"molecular_target": "T5, FcγRIIIAV158 extracellular domain, His …", "test": "ELISA, FcγR-His coated, preformed immune complex of the mAb", "procedure": "as §1"}, "[11]": {"molecular_target": "T6, FcγRIIAH131 extracellular domain, His …", "test": "ELISA, FcγR-His coated, preformed immune complex of the mAb", "procedure": "as §1"}}, "note": "Positions count from the first letter of the chain named."}
{"binder": "B1", "values": [{"measurement": "MFI", "setting": "[1]", "value": 7.01, "unit": "MFI"}]}
{"binder": "B2", "values": [{"measurement": "MFI", "setting": "[1]", "value": 7.11, "unit": "MFI"}]}
{"binder": "B3", "values": [{"measurement": "MFI", "setting": "[1]", "value": 7, "unit": "MFI"}]}
{"binder": "B4", "values": [{"measurement": "Relative binding", "setting": "[2]", "value": 100, "unit": "%"}, {"measurement": "Relative binding", "setting": "[3]", "value": 100, "unit": "%"}, {"measurement": "Relative binding", "setting": "[4]", "value": 100, "unit": "%"}, {"measurement": "Relative binding", "setting": "[5]", "value": 100, "unit": "%"}, {"measurement": "Relative binding", "setting": "[6]", "value": 100, "unit": "%"}, {"measurement": "Chemiluminescence", "setting": "[7]", "value": 42700}, {"measurement": "Chemiluminescence", "setting": "[8]", "value": 50200}, {"measurement": "Chemiluminescence", "setting": "[9]", "value": 36400}, {"measurement": "Chemiluminescence", "setting": "[10]", "value": 57800}, {"measurement": "Chemiluminescence", "setting": "[11]", "value": 54600}, {"measurement": "MFI", "setting": "[1]", "value": 3260, "unit": "MFI"}]}
